The values below come from paper PMC3328597.

For this data set, the target named is T1, dSLBP P231G RPD (Drosophila, UniProt Q9VAN6 173-276, P231G).
T1 sequence: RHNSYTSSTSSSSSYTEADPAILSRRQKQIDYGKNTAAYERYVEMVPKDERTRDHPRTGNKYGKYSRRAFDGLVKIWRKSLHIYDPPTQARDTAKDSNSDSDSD
Description: NMR.

On to GGCCAAAGGCCCUUUUCAGGGCCACCCA (structured_RNA) [SL28-CG], for which the binding result is reported as “binds”.
